According to patent US20040052788A1 (IMMUNEX, published 2004):

T1: human CD30 (human, UniProt P28908 19-385, limits assumed)
T1 sequence (looked up): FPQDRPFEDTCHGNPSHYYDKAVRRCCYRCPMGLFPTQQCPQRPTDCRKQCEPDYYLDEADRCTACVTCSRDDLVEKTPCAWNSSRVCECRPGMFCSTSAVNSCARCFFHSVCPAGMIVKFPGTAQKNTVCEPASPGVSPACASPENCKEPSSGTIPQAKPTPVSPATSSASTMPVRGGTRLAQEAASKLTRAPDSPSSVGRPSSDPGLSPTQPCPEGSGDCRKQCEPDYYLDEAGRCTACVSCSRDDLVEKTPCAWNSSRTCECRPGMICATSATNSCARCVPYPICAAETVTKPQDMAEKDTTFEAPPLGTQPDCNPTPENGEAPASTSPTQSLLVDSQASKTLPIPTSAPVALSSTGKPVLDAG

B1: human TNF-R (p80 form) (receptor, UniProt P20333 23-257, looked up)
chain: LPAQVAFTPYAPEPGSTCRLREYYDQTAQMCCSKCSPGQHAKVFCTKTSDTVCDSCEDSTYTQLWNWVPECLSCGSRCSSDQVETQACTREQNRICTCRPGWYCALSKQEGCRLCAPLRKCRPGFGVARPGTETSDVVCKPCAPGTFSNTTSSTDICRPHQICNVVAIPGNASMDAVCTSTSPTRSMAPGAVHLPQPVSTRSQHTQPTPEPSTAPSTSFLLPMGPSPPAEGSTGD
B2: human LTβR (receptor, UniProt P36941 31-227, looked up)
chain: QAVPPYASENQTCRDQEKEYYEPQHRICCSRCPPGTYVSAKCSRIRDTVCATCAENSYNEHWNYLTICQLCRPCDPVMGLEEIAPCTSKRKTQCRCQPGMFCAAWALECTHCELLSDCPPGTEAELKDEVGKGNNHCVPCKAGHFQNTSSPSARCQPHTRCENQGLVEAAPGTAQSDTTCKNPLEPLPPEMSGTMLM
notes: also called TNFR-RP
B3: human CD27 (receptor, UniProt P26842 20-191, looked up)
chain: ATPAPKSCPERHYWAQGKLCCQMCEPGTFLVKDCDQHRKAAQCDPCIPGVSFSPDHHTRPHCESCRHCNSGLLVRNCTITANAECACRNGWQCRDKECTECDPLPNPSLTARSSQALSPHPQPTHLPYVSEMLEARTAGHMQTLADFRQLPARTLSTHWPPQRSLCSSDFIR
B4: human TRAIL (TNF Related Apoptosis Inducing Ligand), as used in the receptor binding analysis (ligand)
chain: MAMMEVQGGPSLGQTCVLIVIFTVLLQSLCVAVTYVYFTNELKQMQDKYSKSGIACFLKEDDSYWDPNDEESMNSPCWQVKWQLRQLVRKMILRTSEETISTVQEKQQNISPLVRERGPQRVAAHITGTRGRSNTLSSPNSKNEKALGRKINSWESSRSGHSFLSNLHLRNGELVIHEKGFYYIYSQTYFRFQEEIKENTKNDKQMVQYIYKYTSYPDPILLMKSARNSCWSKDAEYGLYSIYQGGIFELKENDRIFVSVTNEHLIDMDHEASFFGAFLVG
notes: also called huTRAIL
B5: human OX40 (receptor, UniProt P43489 29-214, looked up)
chain: LHCVGDTYPSNDRCCHECRPGNGMVSRCSRSQNTVCRPCGPGFYNDVVSSKPCKPCTWCNLRSGSERKQLCTATQDTVCRCRAGTQPLDSYKPGVDCAPCPPGHFSPGDNQACKPWTNCTLAGKHTLQPASNSSDAICEDRDPPATQPQETQGPPARPITVQPTEAWPRTSQGPSTRPVEVPGGRA

Experiments:
[1] = target: B4; assay: slide autoradiography (procedure of Gearing et al.)
Procedure: (§1) TRAIL was tested for ability to bind receptors of the TNF-R family of receptors. The binding analysis was conducted using the slide autoradiography procedure of Gearing et al. (EMBO J. 8:3667, 1989).

[2] = target: T1, human CD30; assay: as above
Procedure: as §1

| binding result [1] | binding result [2] | Binder |
| --- | --- | --- |
| no binding | – | B1 |
| no binding | – | B2 |
| no binding | – | B3 |
| – | no binding | B4 |
| no binding | – | B5 |
